Laboratory results: publication PMC9518701, “Preclinical characterization of amubarvimab and romlusevimab, a pair of non-competing neutralizing monoclonal antibody cocktail, against SARS-CoV-2” (Frontiers in Immunology, 2022)

Molecular target: T1, SARS-CoV-2 spike protein receptor binding domain (RBD) (SARS-CoV-2, wild type (Wuhan-Hu-1 …, UniProt P0DTC2))
T1 construct: also called SARS-CoV-2 RBD
Experiment: SPR
Conditions: both partners purified

| Binder | Kd [nM] | binding result |
| --- | --- | --- |
| romlusevimab (BRII-198) (antibody, V domains shown) VH: QVQLVQSGSELKKPGASVKVSCKASGYTFTTYVMNWVRQAPGQGLEWMGWINTNTGNPTYAQGFTGRFVFSLDTSVSTASLQISSLKAEDTAVYYCSSEITTLGGMDVWGQGTTVTVSS VL: SYVLTQPPSVSVAPGKTARITCGGNNIGSKSVHWYQQKPGQAPVLVIYYDSDRPSGIPERFSGSNSGNTATLTISGVEAGDEADYYCQVWDSISDHRVFGGGTKLTVL | 0.56 | – |
| P2B-1G5 (precursor of romlusevimab) (antibody, V domains shown) VH: QVQLVQSGSELKKPGASVKVSCKASGYTFTTYVMNWVRQAPGQGLEWMGWINTNTGNPTYAQGFTGRFVFSLDTSVSTASLQISSLKAEDTAVYYCSCEITTLGGMDVWGQGTTVTVSS VL: SYVLTQPPSVSVAPGKTARITCGGNNIGSKSVHWYQQKPGQAPVLVIYYDSDRPSGIPERFSGSNSGNTATLTISGVEAGDEADYYCQVWDSISDHRVFGGGTKLTVL | – | binds |
